Experimental data taken from patent publication US20250270287A1 (KEROS THERAPEUTICS, published 2025).

B1: ActRIIA-A1 (SEQ ID NO: 104) chimera-Fc protein (Fc fusion)
chain: GRGEAETRECLFFNANWEKDRTNQTGVEPCYGDKDKRRHCFATWKNISGSIEIVKQGCWLDDINCYDRTDCVEKKDSPEVYFCCCEGNMCNEKFSYFPEMEVTQPTS
notes: Tested as chimera-Fc protein; not shown: linker (if any) and Fc domain
B2: ActRIIA-A3 (SEQ ID NO: 106) chimera-Fc protein (Fc fusion)
chain: GAILGRSETQECLFFNANWEKDRTNQTGVEPCEGEQDKRRHCFATWKNISGSIEIVKQGCWLDDINCYDRTDCVEKKDSPEVYFCCCEGNMCNEKFSYFPEMEVTQPTS
notes: as for B1
B3: ActRIIA-A5 (SEQ ID NO: 107) chimera-Fc protein (Fc fusion)
chain: GAILGRSETQECLFFNANWEKDRTNQTGVEPCYGDKDKRRHCFATWKNISGSIEIVKQGCWLDDFNCYDRQECVEKKDSPEVYFCCCEGNMCNEKFSYFPEMEVTQPTS
notes: as for B1
B4: ActRIIA-A6 (SEQ ID NO: 108) chimera-Fc protein (Fc fusion)
chain: GAILGRSETQECLFFNANWEKDRTNQTGVEPCYGDKDKRRHCFATWKNISGSIEIVKQGCWLDDINCYDRTDCVEKEENPQVYFCCCEGNMCNEKFSYFPEMEVTQPTS
notes: as for B1
B5: ActRIIA-B1B4 (SEQ ID NO: 102) chimera-Fc protein (Fc fusion)
chain: GAILGRSETQECIYYNANWEKDRTNQTGVEPCYGDKDKRRHCFATWKNISGTIELVKKGCWLDDINCYDRTDCVEKKDSPEVYFCCCEGNMCNEKFSYFPEMEVTQPTS
notes: Tested as chimera-Fc protein; also called ActRIIA-B1β4; not shown: linker (if any) and Fc domain
B6: ActRIIA-B1B7 (SEQ ID NO: 101) chimera-Fc protein (Fc fusion)
chain: GAILGRSETQECIYYNANWEKDRTNQTGVEPCYGDKDKRRHCFATWKNISGSIEIVKQGCWLDDINCYDRTDCVEKKDSPEVYFCCCEGNMCNERFTHLPEMEVTQPTS
notes: Tested as chimera-Fc protein; also called ActRIIA-B1β7; not shown: linker (if any) and Fc domain
B7: ActRIIA-B2B4 (SEQ ID NO: 103) chimera-Fc protein (Fc fusion)
chain: GAILGRSETQECLEFNANWEKDRTNQSGLERCYGDKDKRRHCFATWKNISGTIELVKKGCWLDDINCYDRTDCVEKKDSPEVYFCCCEGNMCNEKFSYFPEMEVTQPTS
notes: as for B1
B8: ActRIIA-B3 (SEQ ID NO: 97) chimera-Fc protein (Fc fusion)
chain: GAILGRSETQECLFFNANWEKDRTNQTGVEPCYGDKDKRLHCYASWRNSSGSIEIVKQGCWLDDINCYDRTDCVEKKDSPEVYFCCCEGNMCNEKFSYFPEMEVTQPTS
notes: as for B1
B9: ActRIIA-B4 (SEQ ID NO: 98) chimera-Fc protein (Fc fusion)
chain: GAILGRSETQECLFFNANWEKDRTNQTGVEPCYGDKDKRRHCFATWKNISGTIELVKKGCWLDDINCYDRTDCVEKKDSPEVYFCCCEGNMCNEKFSYFPEMEVTQPTS
notes: as for B1
B10: ActRIIA-B7 (SEQ ID NO: 100) chimera-Fc protein (Fc fusion)
chain: GAILGRSETQECLFFNANWEKDRTNQTGVEPCYGDKDKRRHCFATWKNISGSIEIVKQGCWLDDINCYDRTDCVEKKDSPEVYFCCCEGNMCNERFTHLPEMEVTQPTS
notes: as for B1
B11: ActRIIA-A8 (SEQ ID NO: 110) chimera-Fc protein (Fc fusion)
chain: GAILGRSETQECLFFNANWEKDRTNQTGVEPCYGDKDKRRHCFATWKNISGSIEIVKQGCWLDDINCYDRTDCVEKKDSPEVYFCCCEGNMCNEKFSYFPEAGGPEVTYEPPPTAPT
notes: as for B1
B12: Activin A (ligand, UniProt P08476 311-426, looked up)
chain: GLECDGKVNICCKKQFFVSFKDIGWNDWIIAPSGYHANYCEGECPSHIAGTSGSSLSFHSTVINHYRMRGHSPFANLKSCCVPTKLRPMSMLYYDDGQNIIKKDIQNMIVEECGCS

How the values were obtained:
Activin B [1] = biological target: T1, Activin B (UniProt P09529 293-407); test: cell-based or functional assay
T1 sequence (looked up): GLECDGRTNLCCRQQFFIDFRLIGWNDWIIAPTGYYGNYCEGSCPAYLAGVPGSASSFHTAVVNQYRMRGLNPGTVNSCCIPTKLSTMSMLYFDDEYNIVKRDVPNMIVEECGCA

GDF-11 [2] = biological target: T2, GDF-11 (UniProt O95390 299-407); test: cell-based or functional assay
T2 sequence (looked up): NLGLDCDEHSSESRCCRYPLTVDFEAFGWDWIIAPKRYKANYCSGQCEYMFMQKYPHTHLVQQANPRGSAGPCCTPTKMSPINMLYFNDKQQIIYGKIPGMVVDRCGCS

Activin A [3] = biological target: B12; test: cell-based or functional assay
BMP-9 [4] = biological target: T3, BMP-9 (UniProt Q9UK05 320-429); test: cell-based or functional assay
T3 sequence (looked up): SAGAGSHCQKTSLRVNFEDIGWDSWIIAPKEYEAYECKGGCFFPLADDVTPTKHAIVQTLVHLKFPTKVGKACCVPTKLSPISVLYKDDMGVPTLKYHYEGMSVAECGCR

Activin B [5] = biological target: T1, Activin B; test: SPR (Biacore 8K), Fc protein captured on anti-human IgG, ligand injected
Method: (§1) The Cytiva Biacore 8k was used to measure the kinetics of the interactions between the ActRII- and chimera-Fc proteins and Activin A/Activin B/growth differentiation factor 8 (GDF-8)/GDF-11/BMP-9/BMP-10. Series S CM4 Sensor Chips were immobilized with anti-human capture antibody using the reagents and protocol in the Biacore Human Antibody Capture Kit (GE Life Sciences). Briefly, anti-human IgG was diluted to 25 μg/mL in immobilization buffer. The carboxylated surface of the sensor was activated by injecting a mixture of EDC and NHS. The anti-human IgG was injected into the activated sensor chip flow cells at 10 μL/min for a total of 7 minutes until the chip reached an immobilization level of 3000 resonance units (RU). Ethanolamine was injected to deactivate the sensor surfaces. The chip has 8 flow cells to be used for binding analysis, each with an in-line reference surface to subtract instrument noise and non-specific binding to the sensor chip. The ActRII- and chimera-Fc proteins were captured in their own flow cell to allow for a maximum analyte binding response of 20-30 RU. This was done by injecting 10-20 μL of the ActRII- and chimera-Fc proteins into the flow cells at a concentration of 2 μg/mL until 60-90 RU was captured. Ligand at a single concentration was injected at […] for 60 seconds and then allowed to dissociate under buffer flow for no less than 5 minutes. After the cycle completed, captured protein was stripped from the chip with an injection of 3 M magnesium chloride, the regeneration buffer provided with the Biacore Human Antibody Capture Kit. Each ligand was injected in a concentration series, including a buffer only 0 nM concentration to serve as a double reference for subtracting out instrument noise. The data were analyzed using the Biacore Insight Evaluation Software.

[6] = biological target: T4, growth differentiation factor 8 (GDF-8) (UniProt O14793 267-375); test: as above
T4 construct: also called myostatin
T4 sequence (looked up): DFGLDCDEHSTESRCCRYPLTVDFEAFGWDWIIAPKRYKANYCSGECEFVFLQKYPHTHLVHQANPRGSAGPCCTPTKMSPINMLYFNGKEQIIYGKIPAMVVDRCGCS
Method: as §1

BMP-10 = biological target: T5, BMP-10 (UniProt O95393 317-424); test: as above
T5 sequence (looked up): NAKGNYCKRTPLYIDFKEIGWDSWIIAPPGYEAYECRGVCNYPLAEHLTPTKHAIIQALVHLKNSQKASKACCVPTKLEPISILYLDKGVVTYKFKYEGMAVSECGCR
Method: as §1

GDF-11 [7] = biological target: T2, GDF-11; test: as above
Method: as §1

Activin A [8] = biological target: B12; test: as above
Method: as §1

BMP-9 [9] = biological target: T3, BMP-9; test: as above
Method: as §1

[10] = biological target: T6, ActRIIB-A1 (SEQ ID NO: 120) chimera-Fc protein (Homo sapiens (Human), UniProt Q13705 28-134); test: as above
T6 construct: Tested as chimera-Fc protein; not shown: linker (if any) and Fc domain
T6 sequence: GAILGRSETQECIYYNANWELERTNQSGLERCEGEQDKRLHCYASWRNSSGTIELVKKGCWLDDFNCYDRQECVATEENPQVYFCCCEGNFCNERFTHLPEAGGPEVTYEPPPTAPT
Method: as §1

| Binder | IC50, SBE-luciferase reporter in HEK293 cells (Activin B [1]) [ng/mL] | IC50, SBE-luciferase reporter in HEK293 cells (GDF-11 [2]) [ng/mL] | IC50, SBE-luciferase reporter in HEK293 cells (Activin A [3]) [ng/mL] | IC50, BRE-luciferase reporter in C2C12 cells (BMP-9 [4]) [µg/mL] | Kd (Activin B [5]) [nM] | Kd [6] [nM] | Kd (BMP-10) [nM] | Kd (GDF-11 [7]) [pM] | Kd (Activin A [8]) [nM] | Kd (BMP-9 [9]) [nM] | Kd [10] [nM] |
| --- | --- | --- | --- | --- | --- | --- | --- | --- | --- | --- | --- |
| B1 | 210 | 240 | 640 | 50 | 0.0199 | 0.203 | 0.0663 | < 1 | 0.0703 | 62 | – |
| B2 | 240 | 190 | 630 | 12 | 0.0755 | 0.0977 | 0.0289 | < 1 | 0.0357 | 18 | – |
| B3 | 73 | 230 | 300 | 4.2 | 0.0174 | 0.122 | 0.126 | 6.65 | 0.048 | 2.55 | – |
| B4 | 100 | 77 | 330 | 8.8 | 0.0558 | 0.0682 | 0.347 | < 1 | 0.032 | 49.7 | – |
| B5 | 130 | 260 | 750 | > 50 | 0.00531 | 0.125 | 0.227 | 3430 | 0.024 | 32.9 | – |
| B6 | 250 | 390 | 1400 | > 50 | 0.0249 | 0.0898 | 0.2 | < 1 | 0.0217 | 77.2 | – |
| B7 | 160 | 290 | 700 | > 50 | < 0.001 | 0.0672 | 0.0605 | < 1 | 0.016 | 13.1 | – |
| B8 | 71 | 130 | 140 | > 50 | < 0.001 | 0.0248 | 0.0122 | < 1 | 0.0256 | 13.6 | – |
| B9 | 94 | 220 | 320 | > 50 | < 0.001 | 0.115 | 0.046 | < 1 | 0.0186 | 13.6 | – |
| B10 | 180 | 230 | 840 | 21 | 0.00889 | 0.0121 | 0.141 | < 1 | 0.024 | 58.9 | – |
| B11 | 100 | 180 | 75 | 1.9 | < 0.001 | 0.229 | 0.0397 | < 1 | 0.04 | 8.1 | – |
| B12 | – | – | – | – | – | – | – | – | – | – | 0.0448 |
